The target in assay [1] is T1, nmAb-KT (neutralizing monoclonal antibody against HM-1 killer toxin).
T1 construct: also called nmb-KT; HM-1 neutralizing monoclonal antibody
The experiment in a line: SPR (BIAcore X), nmAb-KT immobilised on CM5 chip, ScFv 15.75-250 nM as analyte, 25 C, HBS-EP. Background: In SPR one partner is held on a chip, and binding of the other changes the refractive index at the surface.

Assay [2] deals with T1, nmAb-KT (neutralizing monoclonal …). The experiment in a line: SPR (BIAcore X), nmAb-KT immobilised, rounded against Table 2.
Assay [3] has as its target T2, BSA (Bovine serum albumine) (bovine, UniProt P02769 25-607).
T2 construct: Negative control; also called negative control
In words: SPR (BIAcore X), BSA negative control.

Assay [4] concerns the target T1, nmAb-KT (neutralizing monoclonal …). The experiment in a line: SPR (BIAcore X), nmAb-KT immobilised on CM5 chip; Ka = kon/koff.
For assay [5] the target is unchanged. In words: SPR (BIAcore X), nmAb-KT immobilised, differs in the last digit from Table 2.
Assay [6] shares this target. In words: SPR (BIAcore X), nmAb-KT immobilised; ratio of Ka values.

Experimental findings from patent publication WO2007023782A1 (dated 2007) are described below.

T2 sequence (P02769 25-607 limits assumed): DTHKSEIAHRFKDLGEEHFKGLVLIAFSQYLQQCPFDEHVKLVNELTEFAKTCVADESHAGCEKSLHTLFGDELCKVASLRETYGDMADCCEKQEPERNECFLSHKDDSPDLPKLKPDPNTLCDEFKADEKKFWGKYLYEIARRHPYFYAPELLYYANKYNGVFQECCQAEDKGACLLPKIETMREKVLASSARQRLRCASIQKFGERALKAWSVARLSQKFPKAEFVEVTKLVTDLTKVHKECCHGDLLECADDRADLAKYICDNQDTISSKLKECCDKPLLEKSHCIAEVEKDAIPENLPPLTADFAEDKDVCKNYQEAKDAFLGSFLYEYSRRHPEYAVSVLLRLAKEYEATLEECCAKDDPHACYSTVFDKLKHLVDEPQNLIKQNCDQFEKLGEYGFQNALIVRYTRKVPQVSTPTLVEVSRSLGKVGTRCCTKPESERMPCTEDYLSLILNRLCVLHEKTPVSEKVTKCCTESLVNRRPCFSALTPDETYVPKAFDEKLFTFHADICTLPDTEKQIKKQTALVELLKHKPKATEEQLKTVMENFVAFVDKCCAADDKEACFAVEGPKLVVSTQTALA

B1: ScFv-A1 (scFv)
scFv: MAQVKLQQSGAELMKPGASVKISCKATGYTFSSYWIEWVKQRPGHGLEWIGEILPGSGSTNYNEKFKGKATFTADTSSNTAYMQLSSLTSEDSAVYYCARYYGNYYAMDYWGQGTTVTVSSGGGGSGGGGSGGGGSDIVLTQSPAIMSASPGEKVTITCSVSSSISSSNLHWYQQKSETSPKPWIYGTSNLASGVPGRFSGSGSGNSYSLTISSMEAEDVATYYCFQGSGYPLTFGSGTKLEIKRAAAGAPVPYPDPLEPR
notes: also called ScFv-Al; ScFv KTIdAb
One may read the koff as a measure of how fast the partners let go of each other. Read a high koff as fast dissociation. As a reminder, the kon is the rate constant with which the complex forms. Higher therefore signals faster complex formation. In assay [1], B1 had a koff of 0.00507 s⁻¹ and a kon of 243000 M⁻¹ s⁻¹. The same molecule displayed a Ka in assay [2] of 4.8e+07 M⁻¹. Further, the binding result in assay [3] is reported as “no binding (tested: 15.75 nM-250 nM ScFv)”. In assay [4], this molecule had a Ka of 4.79e+07 M⁻¹.

B2: ScFv-A3 (scFv)
scFv: MAQVKLQQSGAELMKPGASVKISCKATGYTFSSYWIEWVKQRPGHGLEWIGEILPGSGSTNYNEKFKGKATFTADTSSNTAYMQLSSLTSEDSAVYYCARYYGNYYAMDYWGQGTTVTVSSGGGGSGGGGSGGGGSDIVLTQSPAIMSASPGEKVTITCSVSSSRSSSNLHWYQQKSETSPKPWIYGTSNLASGVPGRFSGSGSGKLLLSHDQQHEAEDVATYYCFQGSGYPLTFGSGTKLEIKRAAAGAPVPYPDPLEPR
notes: Mouse anti-idiotypic single chain Fv, VH-(Gly4Ser)3 linker-VL, with a C-terminal E-Tag; also called ScFv KTIdAb; anti-idiotypic ScFv
In assay [1], B2 registered a koff of 0.00751 s⁻¹ and a kon of 229000 M⁻¹ s⁻¹. Further, the binding result in assay [3] was “no binding (tested: 15.75 nM-250 nM ScFv)”. The Ka in assay [4] was 3.05e+07 M⁻¹. Besides, in assay [5], the Ka was determined as 3.04e+07 M⁻¹.

B3: ScFv-A4 (scFv)
scFv: MAQVKLQQSGAELMKPGASVKISCKATGYTFSSYWIEWVKQRPGHGLEWIGEILPGSGSTNYNEKFKGKATFTADTSSNTAYMQLSSLTSEDSAVYYCARYYGNYYAMDYWGQGTTVTVSSGGGGSGGGGSGGGGSDIVLTQSPAIMSASPGEKSPSPAVSAQVYVPATCTGTSRSQKPPPNPGFMAHPTWLLESQVASVAVGLENSYSLTISSMEAEDVATYYCFQGSGYPLTFGSGTKLEIKRAAAGAPVPYPDPLEPR
notes: as for B2
In assay [1], B3 returned a koff of 0.005 s⁻¹ and a kon of 224000 M⁻¹ s⁻¹. Moreover, the binding result in assay [3] is “no binding (tested: 15.75 nM-250 nM ScFv)”. In assay [4], this molecule returned a Ka of 4.48e+07 M⁻¹.

B4: ScFv-A2 (scFv, V domains shown)
VH: QVKLQQSGAELMKPGASVKISCKATGYTFSSYWIEWVKQRPGHGLEWIGEILPGSGSTNYNEKFKGKATFTADTSSNTAYMQLSSLTSEDSAVYYCARYYGNYYAMDYWGQGTTVTVSS
notes: as for B2
As to B4, in assay [1], the koff was 0.00458 s⁻¹ and the kon is 305000 M⁻¹ s⁻¹. Also, the binding result in assay [3] was “no binding (tested: 15.75 nM-250 nM ScFv)”. In assay [4], this molecule returned a Ka of 6.66e+07 M⁻¹. Moreover, the Ka in assay [5] stood at 6.65e+07 M⁻¹. In assay [6], the “fold of affinity constant Ka against ScFv-A1 or ScFv-A4” value is approximately 1.2 fold and the “fold of affinity constant Ka against ScFv-A3” value was approximately 2 fold.
